# Patent publication US20220119529A1 (SUZHOU KANOVA BIOPHARMACEUTICAL, published 2022)
# Substitutions are numbered along the chain they refer to.
# T1: human B7H3-4Ig on BaF3 cells (BaF3/B7H3-4Ig) (human, UniProt Q5ZPR3 29-534)
# T1 sequence: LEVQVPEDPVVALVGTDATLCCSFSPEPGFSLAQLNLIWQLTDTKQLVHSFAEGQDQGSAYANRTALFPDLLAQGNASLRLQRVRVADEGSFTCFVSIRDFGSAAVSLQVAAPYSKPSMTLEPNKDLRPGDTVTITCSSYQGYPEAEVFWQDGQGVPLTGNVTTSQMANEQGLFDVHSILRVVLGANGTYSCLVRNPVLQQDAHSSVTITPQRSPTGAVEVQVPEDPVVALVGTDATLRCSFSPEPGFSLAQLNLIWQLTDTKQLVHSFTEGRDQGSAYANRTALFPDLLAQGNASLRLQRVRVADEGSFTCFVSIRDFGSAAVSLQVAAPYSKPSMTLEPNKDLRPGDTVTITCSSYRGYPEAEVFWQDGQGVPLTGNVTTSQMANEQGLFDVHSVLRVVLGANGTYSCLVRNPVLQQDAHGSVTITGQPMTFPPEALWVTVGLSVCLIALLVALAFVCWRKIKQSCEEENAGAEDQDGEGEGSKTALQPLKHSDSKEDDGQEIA
# T2: human B7H3-2Ig on BaF3 cells (BaF3/B7H3-2Ig) (human, UniProt Q5ZPR3 29-534)
# T2 chain: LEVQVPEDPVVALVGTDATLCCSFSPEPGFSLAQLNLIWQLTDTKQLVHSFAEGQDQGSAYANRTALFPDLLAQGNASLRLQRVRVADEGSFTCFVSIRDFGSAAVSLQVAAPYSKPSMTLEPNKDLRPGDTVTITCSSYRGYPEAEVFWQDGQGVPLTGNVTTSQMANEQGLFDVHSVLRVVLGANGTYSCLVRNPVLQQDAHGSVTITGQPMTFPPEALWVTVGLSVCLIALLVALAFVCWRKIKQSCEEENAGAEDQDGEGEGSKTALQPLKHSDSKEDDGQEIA
# T3: Human B7-H3 extracellular domain (NCBI Reference Sequence: NM_025240.2) (human, UniProt Q5ZPR3 29-466)
# T3 chain: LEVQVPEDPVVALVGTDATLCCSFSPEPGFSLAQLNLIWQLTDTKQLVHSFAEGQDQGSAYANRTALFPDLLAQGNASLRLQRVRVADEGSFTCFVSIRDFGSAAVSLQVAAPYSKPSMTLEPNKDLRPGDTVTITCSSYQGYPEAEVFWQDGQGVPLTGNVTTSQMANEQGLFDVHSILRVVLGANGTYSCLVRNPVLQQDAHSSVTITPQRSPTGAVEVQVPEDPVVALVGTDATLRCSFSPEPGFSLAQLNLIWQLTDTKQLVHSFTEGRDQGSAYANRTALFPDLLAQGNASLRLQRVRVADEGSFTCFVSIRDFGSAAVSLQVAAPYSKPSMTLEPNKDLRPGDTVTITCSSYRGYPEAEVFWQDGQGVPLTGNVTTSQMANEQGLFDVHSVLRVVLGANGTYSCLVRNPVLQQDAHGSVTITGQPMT
# T4: Mouse B7H3 (plate-coated protein, ELISA) (mouse, UniProt Q8VE98 29-248, limits assumed)
# T4 sequence (looked up): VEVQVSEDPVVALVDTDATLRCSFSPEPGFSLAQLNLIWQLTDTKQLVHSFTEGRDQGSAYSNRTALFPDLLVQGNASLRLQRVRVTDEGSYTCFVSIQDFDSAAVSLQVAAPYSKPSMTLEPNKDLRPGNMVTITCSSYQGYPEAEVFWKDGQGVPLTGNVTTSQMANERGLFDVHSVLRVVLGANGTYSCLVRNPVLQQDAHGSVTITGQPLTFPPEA
# T5: Cynomolgus B7H3 (plate-coated protein, ELISA) (cynomolgus monkey)
# T5 chain: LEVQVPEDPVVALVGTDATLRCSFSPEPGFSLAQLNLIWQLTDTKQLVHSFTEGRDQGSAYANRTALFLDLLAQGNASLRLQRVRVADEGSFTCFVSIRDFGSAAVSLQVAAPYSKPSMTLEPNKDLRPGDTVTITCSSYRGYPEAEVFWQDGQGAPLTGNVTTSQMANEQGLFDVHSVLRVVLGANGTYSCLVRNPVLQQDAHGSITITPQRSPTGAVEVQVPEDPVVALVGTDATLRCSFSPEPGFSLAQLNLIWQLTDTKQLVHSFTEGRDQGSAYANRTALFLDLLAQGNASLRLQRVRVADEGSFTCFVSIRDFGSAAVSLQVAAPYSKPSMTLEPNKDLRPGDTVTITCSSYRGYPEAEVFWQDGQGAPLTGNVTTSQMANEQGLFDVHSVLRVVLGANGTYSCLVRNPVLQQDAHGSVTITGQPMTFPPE
# B1: #27-21 (VH2-2-VL2-1) (antibody, V domains shown)
# VH: QVQLVQSGAEVVKPGASVKVSCKASGYTFTNYWMHWVKQAPGQGLEWIGMIHPNSGAFNYNERFKTRVTITVDKSTSTAYMELSSLRSEDTAVYYCARSTALATGYWGQGTLLTVSS
# VL: DIQLTQSPSFLSASVGDRVTITCSASSSVSYMYWYQQKPGKSPKLLIYDTSNLASGVPSRFSGSGSGTEYTLTISSLQPEDFATYYCQQWSSYPLTFGQGTKLEIK
# notes: Humanized antibody from murine #27; Detected with anti-human IgG and captured through Fc; also called #27-VH2-2/VL2-1
# B2: #27-2121 (VH2-1-VL2-1) (antibody, IgG1, V domains shown)
# VH: B1 VH with K38R, I48M, L113V
# VL: B1 VL
# notes: Humanized antibody from murine #27; also called #27-VH2-1/VL2-1
# B3: #27-22 (VH2-2-VL2-2) (antibody, IgG1, V domains shown)
# VH: B1 VH
# VL: B1 VL with I21M, A83V
# notes: Humanized antibody from murine #27; also called #27-VH2-2/VL2-2
# B4: #23-5424 (VH5-4-VL2-4) (antibody, IgG1, V domains shown)
# VH: QVQLVQSGAEVKKPGESLKISCKASGYNFNNYWMHWVRQRPGKGLEWIGMIHPNSGTFNYNERFKRKATLTVDKSISTAYLQWSSLKAEDTAMYYCAKSTALATDYWGQGTLVTVSS
# VL: B1 VL with D1Q, Q3V, F10T, I21M, S42A, S59I, E69S, L77M, E80D, A83V
# notes: Humanized antibody from murine #23; also called #23-VH5-4/VL2-4
# B5: #23-5423 (VH5-4-VL2-3) (antibody, IgG1, V domains shown)
# VH: B4 VH
# VL: B1 VL with D1Q, Q3V, F10T, S42A, S59I, E69S, E80D
# notes: Humanized antibody from murine #23
# Target: T1, human B7H3-4Ig on BaF3 cells …
# Assay: flow cytometry on BaF3/B7H3-4Ig cells
# Protocol: (§1) Cell surface binding affinity was tested with BaF3/B7H3-2Ig and BaF3/B7H3-4Ig the same method separately. Cells were washed with PBS and aliquot to 96-well U-bottom plate with a cell density of 5×10\hat{ }5 cells/well. For live/dead stain, LIVE/DEAD® Fixable Aqua Dead Cell Stain Kit (Life technologies, L34957) was applied (1:1000 in PBS, 100 ul/well) to cells, and incubated at 4° C. for 10 min FACS buffer (2% FBS in PBS, 100 ul/well) was added to each well to terminate staining. Centrifuge (1200 rpm, 5 min) to discard supernatant and wash with FACS buffer once. Humanized anti-B7H3 antibodies were diluted in FACS buffer to according concentrations and added to each well (100 ul/well). Cells were incubated at 4° C. for 30 min, and then, washed twice with FACS buffer. Alexa Fluor® 594 labeled goat anti-human IgG (Jackson Immuno Research, 109-585-088) was added (1:500 in FACS buffer) to label bounded antibodies. Cells were incubated at 4° C. for 30 min, and then, washed twice with FACS buffer.
row,Binder,EC50 [nM]
1,B1,< 1
2,B2,< 1
3,B3,< 1

# Target: T1, human B7H3-4Ig on BaF3 cells …
# Assay: flow cytometry (MFI) on BaF3 cells stably expressing human B7H3-4Ig; panel 'BaF3/4Ig-B7H3'
# Protocol: as §1
row,Binder,EC50 [nM]
1,B1,0.896
2,B2,0.908
3,B3,0.984

# Target: B7H3 expressed on LPS-stimulated human PBMCs (monocytes) (human) (UniProt Q5ZPR3)
# Assay: flow cytometry (MFI) on LPS-stimulated human PBMCs; panel 'XKH007 23-5424'
row,Binder,EC50 [nM]
1,B4,1.98

# Target: B7H3 expressed on LPS-stimulated human PBMCs (monocytes) (human) (UniProt Q5ZPR3)
# Assay: flow cytometry (MFI) on LPS-stimulated human PBMCs; panel 'XKH007-2721'
row,Binder,EC50 (read off the curve) [nM]
1,B1,0.06

# Target: T2, human B7H3-2Ig on BaF3 cells …
# Assay: flow cytometry on BaF3/B7H3-2Ig cells
row,Binder,EC50 [nM]
1,B1,< 1
2,B2,< 1
3,B3,< 1

# Target: Human B7H3 (plate-coated protein, ELISA) (human) (UniProt Q5ZPR3)
# Assay: ELISA, antigen coated on plate, anti-human IgG-HRP
row,Binder,EC50 [nM]
1,B1,0.618
2,B5,0.0685
3,B2,0.583
4,B3,0.333
5,B4,0.125

# Target: T2, human B7H3-2Ig on BaF3 cells …
# Assay: flow cytometry (MFI) on BaF3 cells stably expressing human B7H3-2Ig; panel 'BaF3/2Ig-B7H3'
row,Binder,EC50 [nM]
1,B1,0.897
2,B2,0.777
3,B3,1.16

# Target: B7H3 expressed on LPS-stimulated human PBMCs (monocytes) (human) (UniProt Q5ZPR3)
# Assay: flow cytometry on LPS-stimulated human PBMCs
row,Binder,EC50 [nM]
1,B1,< 1
2,B5,< 3
3,B2,< 1
4,B3,< 1
5,B4,< 3

# Target: B7H3 expressed on LPS-stimulated human PBMCs (monocytes) (human) (UniProt Q5ZPR3)
# Assay: flow cytometry (MFI) on LPS-stimulated human PBMCs; panel 'XKH007-272121'
row,Binder,EC50 [nM]
1,B2,0.117

# Target: B7H3 expressed on LPS-stimulated human PBMCs (monocytes) (human) (UniProt Q5ZPR3)
# Assay: flow cytometry (MFI) on LPS-stimulated human PBMCs; panel 'XKH007-2722'
row,Binder,EC50 [nM]
1,B3,0.131

# Target: T3, Human B7-H3 extracellular domain (NCBI …)
# Assay: SPR, Biacore 8K, antibody captured through Fc, B7-H3 ECD as analyte
Binder,Kd [nM],koff [s⁻¹],kon [M⁻¹ s⁻¹]
B1,1.44,0.000431,299000
B5,1.05,0.000345,329000
B2,1.42,0.000433,306000
B3,1.26,0.000365,288000
B4,1.36,0.000356,263000

# Target: B7H3 expressed on LPS-stimulated human PBMCs (monocytes) (human) (UniProt Q5ZPR3)
# Assay: flow cytometry (MFI) on LPS-stimulated human PBMCs; panel 'XKH007 23-5423'
row,Binder,EC50 [nM]
1,B5,1.54

# Target: T4, Mouse B7H3 (plate-coated protein, ELISA)
# Assay: ELISA, antigen coated on plate, anti-human IgG-HRP
# Protocol: (§2) In order to test humanized anti-B7H3 antibody binding affinity, an ELISA analysis was carried out. Human B7H3, mouse B7H3, and cynomolgus B7H3 (2 ug/ml, in PBS) were coated on MaxiSorp 96-well plates (NUNC, 449824) in 0.5M carbonate/bicarbonate buffer, pH9.6, incubated at 4° C. overnight. Coated plates were blocked with skimmed milk (5%, in PBST) for 1 h. Humanized anti-B7H3 antibodies were diluted and added to the plates, and incubated for 2 h at room temperature. Washed three times with PBST (1×PBS with 0.05% tween-20) to eliminate un-bounded antibodies. Goat anti-Human IgG-HRP (Easybio, BE0122, 1:5000 in PBS) was added and incubated for 1 h. Washed three times with PBST (lx PBS with 0.05% tween-20) to eliminate un-bounded antibodies. TMB (eBioscience, 00-4201-56) was added (50 ul/well) for color rendering and stopped by 2N H2SO4 (50 ul/well). Optical density was measured at 450 nm and […]. As shown in FIG. 1A and Table 1, the antibodies bind to human, mouse and cynomolgus monkey B7H3 protein with high affinity. The binding ability of the mAbs to cynomolgus B7H3 is similar to that for human B7-H3 protein.
row,Binder,EC50 [nM]
1,B1,0.586
2,B5,1.44
3,B2,0.462
4,B3,0.34
5,B4,4.9

# Target: T5, Cynomolgus B7H3 (plate-coated protein, …)
# Assay: ELISA, antigen coated on plate, anti-human IgG-HRP
# Protocol: as §2
row,Binder,EC50 [nM]
1,B1,0.685
2,B5,0.042
3,B2,0.494
4,B3,0.584
5,B4,0.0652

# Target: T1, human B7H3-4Ig on BaF3 cells …
# Assay: flow cytometry (MFI) on BaF3 cells stably expressing human B7H3-4Ig; panel 'BaF3-B7H3-4Ig'
# Protocol: as §1
row,Binder,binding result
1,B5,binds
2,B4,binds
